Here are results for five proteins from paper PMC5719400, “Engineering an aldehyde dehydrogenase toward its substrates, 3-hydroxypropanal and NAD^+, for enhancing the production of 3-hydroxypropionic acid” (Scientific Reports, 2017).

Common to all, as to assay: purified protein
Common to all, as to type: biochemical, Azospirillum brasilense

Substrate in series [1]: NC(=O)c1ccc[n+]([C@@H]2O[C@H](COP(=O)(O)OP(=O)(O)OC[C@H]3O[C@@H](n4cnc5c(N)ncnc54)[C@H](O)[C@@H]3O)[C@@H](O)[C@H]2O)c1
Particulars: 3 mM 3-HPA, 100 mM phosphate pH 8, 25 °C, varied: cofactor. From the text:
(§1) (α-ketoglutaric semialdehyde dehydrogenase)

Substrate in series [2]: O=CCCO
Particulars: 2 mM NAD+, 100 mM phosphate pH 8, 25 °C.
From the text: as §1

Substrate in series [3]: NC(=O)c1ccc[n+]([C@@H]2O[C@H](COP(=O)(O)OP(=O)(O)OC[C@H]3O[C@@H](n4cnc5c(N)ncnc54)[C@H](OP(=O)(O)O)[C@@H]3O)[C@@H](O)[C@H]2O)c1
The following applies: 3 mM 3-HPA, 100 mM phosphate pH 8, 25 °C, varied: cofactor.
From the text: as §1

Usually kcat stands for the maximal rate divided by the concentration of active sites. In general, kcat/Km refers to the second-order rate constant that governs catalysis at low substrate concentration.

B1: KGSADH (α-ketoglutaric semialdehyde dehydrogenase) (Azospirillum brasilense; A337R/A442P/P444T/R334Q) (protein)
chain: ANVTYTDTQLLIDGEWVDAASGKTIDVVNPATGKPIGRVAHAGIADLDRALAAAQSGFEAWRKVPAHERAATMRKAAALVRERADAIAQLMTQEQGKPLTEARVEVLSAADIIEWFADEGRRVYGRIVPPRNLGAQQTVVKEPVGPVAAFTPWNFPVNQVVRKLSAALATGCSFLVKAPEETPASPAALLRAFVDAGVPAGVIGLVYGDPAEISSYLIPHPVIRKVTFTGSTPVGKQLASLAGLHMKRATMELGGHAPVIVAEDADVALAVKAAGGAKFRNAGQVCISPTRFLVHNSIRDEFTRALVKHAEGLKVGNGLEEGTTLGALANPRQLTRMASVIDNARKVGASIETGGERIGSEGNFFAPTVIANVPLDADVFNNEPFGPVAAIRGFDKLEEAIAEANRLPFGLAGYAFTRSFANVHLLTQRLEVGMLWINQPPTTWPEMPFGGVKDSGYGSEGGPEALEPYLVTKSVTVMAV
notes: N-terminal His6-tag (pQE80L), expressed in E. coli DH10β, Ni-NTA purified; catalytic residues E253 and C287
Take B1: in the series “purified protein [1]” (variant 106-QR), the Km was 0.025(±0.0045) mM, the kcat is 4.8 ± 0.93 s⁻¹ and the kcat/Km came out at 192000 ± 72500 M⁻¹ s⁻¹. For the same protein, in “purified protein [2]” (variant 106-QR), the Km is on record as 0.29(±0.062) mM, the kcat stood at 5 ± 1.2 s⁻¹ and the kcat/Km was 17000 ± 7800 M⁻¹ s⁻¹.

B2: KGSADH (α-ketoglutaric semialdehyde dehydrogenase) (Azospirillum brasilense; A110S/A337R/A442P/K273A/P444T/R334Q) (protein)
chain: ANVTYTDTQLLIDGEWVDAASGKTIDVVNPATGKPIGRVAHAGIADLDRALAAAQSGFEAWRKVPAHERAATMRKAAALVRERADAIAQLMTQEQGKPLTEARVEVLSSADIIEWFADEGRRVYGRIVPPRNLGAQQTVVKEPVGPVAAFTPWNFPVNQVVRKLSAALATGCSFLVKAPEETPASPAALLRAFVDAGVPAGVIGLVYGDPAEISSYLIPHPVIRKVTFTGSTPVGKQLASLAGLHMKRATMELGGHAPVIVAEDADVALAVAAAGGAKFRNAGQVCISPTRFLVHNSIRDEFTRALVKHAEGLKVGNGLEEGTTLGALANPRQLTRMASVIDNARKVGASIETGGERIGSEGNFFAPTVIANVPLDADVFNNEPFGPVAAIRGFDKLEEAIAEANRLPFGLAGYAFTRSFANVHLLTQRLEVGMLWINQPPTTWPEMPFGGVKDSGYGSEGGPEALEPYLVTKSVTVMAV
notes: as for B1
Consider B2, for which, in the series “purified protein [1]” (variant 104-QR), the Km was 0.033(±0.0089) mM, the catalytic constant (kcat) was found to be 5.9 ± 0.61 s⁻¹ and the kcat/Km is 179000 ± 66700 M⁻¹ s⁻¹. Moreover, in “purified protein [2]” (variant 104-QR), the Km is reported as 0.43(±0.094) mM, the kcat is 6.7 ± 0.64 s⁻¹ and the kcat/Km came to 16000 ± 4900 M⁻¹ s⁻¹.

B3: KGSADH (α-ketoglutaric semialdehyde dehydrogenase) (Azospirillum brasilense; A337R/A442P/K273A/P444A/R334Q/T443E) (protein)
chain: ANVTYTDTQLLIDGEWVDAASGKTIDVVNPATGKPIGRVAHAGIADLDRALAAAQSGFEAWRKVPAHERAATMRKAAALVRERADAIAQLMTQEQGKPLTEARVEVLSAADIIEWFADEGRRVYGRIVPPRNLGAQQTVVKEPVGPVAAFTPWNFPVNQVVRKLSAALATGCSFLVKAPEETPASPAALLRAFVDAGVPAGVIGLVYGDPAEISSYLIPHPVIRKVTFTGSTPVGKQLASLAGLHMKRATMELGGHAPVIVAEDADVALAVAAAGGAKFRNAGQVCISPTRFLVHNSIRDEFTRALVKHAEGLKVGNGLEEGTTLGALANPRQLTRMASVIDNARKVGASIETGGERIGSEGNFFAPTVIANVPLDADVFNNEPFGPVAAIRGFDKLEEAIAEANRLPFGLAGYAFTRSFANVHLLTQRLEVGMLWINQPPEAWPEMPFGGVKDSGYGSEGGPEALEPYLVTKSVTVMAV
notes: as for B1
As for B3, in “purified protein [1]” (variant 108-QR), the Km is on record as 0.037(±0.0024) mM, the kcat amounted to 6.1 ± 0.64 s⁻¹ and the kcat/Km is 165000 ± 28000 M⁻¹ s⁻¹. Besides, in “purified protein [2]” (variant 108-QR), the Km is given as 0.17(±0.032) mM, the kcat worked out at 6 ± 1.3 s⁻¹ and the kcat/Km stood at 35000 ± 14000 M⁻¹ s⁻¹. In the series “purified protein [3]” (variant 108-QR), the Km is recorded as 0.66(±0.065) mM, the kcat is 4.5 ± 1.1 s⁻¹ and the kcat/Km turned out to be 6900 ± 2300 M⁻¹ s⁻¹.

B4: KGSADH (α-ketoglutaric semialdehyde dehydrogenase) (Azospirillum brasilense) (protein)
chain: ANVTYTDTQLLIDGEWVDAASGKTIDVVNPATGKPIGRVAHAGIADLDRALAAAQSGFEAWRKVPAHERAATMRKAAALVRERADAIAQLMTQEQGKPLTEARVEVLSAADIIEWFADEGRRVYGRIVPPRNLGAQQTVVKEPVGPVAAFTPWNFPVNQVVRKLSAALATGCSFLVKAPEETPASPAALLRAFVDAGVPAGVIGLVYGDPAEISSYLIPHPVIRKVTFTGSTPVGKQLASLAGLHMKRATMELGGHAPVIVAEDADVALAVKAAGGAKFRNAGQVCISPTRFLVHNSIRDEFTRALVKHAEGLKVGNGLEEGTTLGALANPRRLTAMASVIDNARKVGASIETGGERIGSEGNFFAPTVIANVPLDADVFNNEPFGPVAAIRGFDKLEEAIAEANRLPFGLAGYAFTRSFANVHLLTQRLEVGMLWINQPATPWPEMPFGGVKDSGYGSEGGPEALEPYLVTKSVTVMAV
notes: as for B1
As for B4, the values for the Km in the series “purified protein [1]”, in “purified protein [2]” and in the series “purified protein [3]” were 0.21(±0.018) mM, 1.6(±0.14) mM and 2.3(±0.033) mM, respectively. Also, the kcat in the series “purified protein [1]” came out at 12 ± 1.7 s⁻¹; in the series “purified protein [2]”, 15 ± 2.1 s⁻¹; in the series “purified protein [3]” it was 8.6 ± 0.84 s⁻¹. Also, the kcat/Km in the series “purified protein [1]” amounted to 57000 ± 13000 M⁻¹ s⁻¹; in the series “purified protein [2]” it was 9000 ± 2100 M⁻¹ s⁻¹; in “purified protein [3]” it was 3700 ± 420 M⁻¹ s⁻¹.

B5: KGSADH (α-ketoglutaric semialdehyde dehydrogenase) (Azospirillum brasilense; A337R/R334Q) (protein)
chain: ANVTYTDTQLLIDGEWVDAASGKTIDVVNPATGKPIGRVAHAGIADLDRALAAAQSGFEAWRKVPAHERAATMRKAAALVRERADAIAQLMTQEQGKPLTEARVEVLSAADIIEWFADEGRRVYGRIVPPRNLGAQQTVVKEPVGPVAAFTPWNFPVNQVVRKLSAALATGCSFLVKAPEETPASPAALLRAFVDAGVPAGVIGLVYGDPAEISSYLIPHPVIRKVTFTGSTPVGKQLASLAGLHMKRATMELGGHAPVIVAEDADVALAVKAAGGAKFRNAGQVCISPTRFLVHNSIRDEFTRALVKHAEGLKVGNGLEEGTTLGALANPRQLTRMASVIDNARKVGASIETGGERIGSEGNFFAPTVIANVPLDADVFNNEPFGPVAAIRGFDKLEEAIAEANRLPFGLAGYAFTRSFANVHLLTQRLEVGMLWINQPATPWPEMPFGGVKDSGYGSEGGPEALEPYLVTKSVTVMAV
notes: as for B1
With B5, in “purified protein [1]” (variant WT-QR), the Km was 0.044(±0.0033) mM, the catalytic constant (kcat) came out at 7.9 ± 0.75 s⁻¹ and the kcat/Km is 180000 ± 30500 M⁻¹ s⁻¹. In the series “purified protein [2]” (variant WT-QR), the Km is 0.55(±0.13) mM, the kcat was 6.8 ± 0.35 s⁻¹ and the kcat/Km amounted to 12000 ± 3600 M⁻¹ s⁻¹. In “purified protein [3]” (variant WT-QR), the Km is 0.81(±0.15) mM, the kcat was found to be 4.4 ± 1.4 s⁻¹ and the kcat/Km is 5400 ± 2700 M⁻¹ s⁻¹.
